No end group written: not given here. *: point of attachment. FITC = O=C1OC2(c3ccc(O)cc3Oc3cc(O)ccc32)c2ccc(NC(=S)*)cc21
What was measured:
eIF4GI557-1599 [1] = biological target: T1, eIF4GI557-1599 (human, UniProt Q04637 557-1599); assay: fluorescence anisotropy; mRNA pre-bound by eIF4E•FITC-4E-BP1 peptide (label on peptide); 20 mM HEPES-KOH pH 7.5, 200 mM KCl, 1 mM MgCl2, 25 °C; 10 nM labeled mRNA; pre-assembly with 0.5 uM eIF4E and 1 uM 4E-BP1; settings: protein: recombinant; tags: N-terminal 6xHis, TEV-cleaved; label: 3' fluorescein; structured 5'UTR
eIF4GI557-1599 [2] = biological target: T1, eIF4GI557-1599; assay: fluorescence anisotropy; mRNA pre-bound by eIF4E•4E-BP1; 20 mM HEPES-KOH pH 7.5, 200 mM KCl, 1 mM MgCl2, 25 °C; 10 nM labeled mRNA; pre-assembly with 0.5 uM eIF4E and 1 uM 4E-BP1; settings: protein: recombinant; tags: N-terminal 6xHis, TEV-cleaved; label: 3' fluorescein; structured 5'UTR
eIF4GI557-1599;eIF4A [3] = biological target: T2, eIF4GI557-1599;eIF4A (human;human?, UniProt Q04637;P60842 557-1599;1-406, |); assay: as above; settings: protein: recombinant;recombinant, tags: N-terminal 6xHis, TEV-cleaved;N-terminal His-MBP, copies: 1;1, label: 3' fluorescein; for Kd: structured 5'UTR
eIF4E;4E-BP1 = eIF4E;4E-BP1 (human;human, UniProt P06730;Q13541 1-217;1-118, |); assay: fluorescence anisotropy; 20 mM HEPES-KOH pH 7.5, 200 mM KCl, 1 mM MgCl2, 25 °C; 10 nM labeled mRNA; pre-assembly with 0.5 uM eIF4E and 1 uM 4E-BP1; settings: protein: recombinant;recombinant, tags: N-terminal polyHis, TEV-cleaved;N-terminal 6xHis, copies: 1;1, label: 3' fluorescein
4E-BP1 = 4E-BP1 (human, UniProt Q13541 1-118); assay: as above; settings: protein: recombinant, tags: N-terminal 6xHis, TEV-cleaved, label: 3' fluorescein
eIF4GI557-1599 [4] = biological target: T1, eIF4GI557-1599; assay: as above; settings: protein: recombinant, tags: N-terminal 6xHis, TEV-cleaved, label: 3' fluorescein; for Kd: structured 5'UTR
eIF4E = eIF4E (human, UniProt P06730 1-217); assay: as above; settings: protein: recombinant, tags: N-terminal polyHis, TEV-cleaved, label: 3' fluorescein
eIF4GI557-1599;eIF4A [5] = biological target: T2, eIF4GI557-1599;eIF4A; assay: fluorescence anisotropy; ATP; mRNA pre-bound by eIF4E•4E-BP1; 20 mM HEPES-KOH pH 7.5, 200 mM KCl, 1 mM MgCl2, 25 °C; 10 nM labeled mRNA; pre-assembly with 0.5 uM eIF4E and 1 uM 4E-BP1; settings: protein: recombinant;recombinant, tags: N-terminal 6xHis, TEV-cleaved;N-terminal His-MBP, copies: 1;1, label: 3' fluorescein, structured 5'UTR
eIF4GI557-1599;eIF4A [6] = biological target: T2, eIF4GI557-1599;eIF4A; assay: fluorescence anisotropy; mRNA pre-bound by eIF4E•4E-BP1; text gives error 1.0; 20 mM HEPES-KOH pH 7.5, 200 mM KCl, 1 mM MgCl2, 25 °C; 10 nM labeled mRNA; pre-assembly with 0.5 uM eIF4E and 1 uM 4E-BP1; settings: protein: recombinant;recombinant, tags: N-terminal 6xHis, TEV-cleaved;N-terminal His-MBP, copies: 1;1, label: 3' fluorescein, structured 5'UTR
eIF4GI557-1599 [7] = biological target: T1, eIF4GI557-1599; assay: fluorescence anisotropy; text gives error 3.1; 20 mM HEPES-KOH pH 7.5, 200 mM KCl, 1 mM MgCl2, 25 °C; 10 nM labeled mRNA; pre-assembly with 0.5 uM eIF4E and 1 uM 4E-BP1; settings: protein: recombinant; tags: N-terminal 6xHis, TEV-cleaved; label: 3' fluorescein; structured 5'UTR
eIF4GI557-1599 [8] = biological target: T1, eIF4GI557-1599; assay: fluorescence anisotropy; mRNA pre-bound by eIF4E•FITC-4E-BP1 peptide (label on peptide); text gives error 1.5; 20 mM HEPES-KOH pH 7.5, 200 mM KCl, 1 mM MgCl2, 25 °C; 10 nM labeled mRNA; pre-assembly with 0.5 uM eIF4E and 1 uM 4E-BP1; settings: protein: recombinant; tags: N-terminal 6xHis, TEV-cleaved; label: 3' fluorescein; structured 5'UTR
eIF4GI557-1599;eIF4A [9] = biological target: T2, eIF4GI557-1599;eIF4A; assay: fluorescence anisotropy; ATP; mRNA pre-bound by eIF4E•4E-BP1; text gives error 1.5; 20 mM HEPES-KOH pH 7.5, 200 mM KCl, 1 mM MgCl2, 25 °C; 10 nM labeled mRNA; pre-assembly with 0.5 uM eIF4E and 1 uM 4E-BP1; settings: protein: recombinant;recombinant, tags: N-terminal 6xHis, TEV-cleaved;N-terminal His-MBP, copies: 1;1, label: 3' fluorescein, structured 5'UTR
[10] = biological target: eukaryotic initiation factor 4E (eIF4E) (human, UniProt P06730 1-217); assay: fluorescence polarisation; fluorescence anisotropy; 20 nM FITC-labelled 4E-BP1 peptide, free or preincubated with 10 nM eIF4E for 20 min at 25 °C, titrated with protein (eIF4E: 200 ul of 20 nM peptide with 2.5 uM eIF4E); no mRNA; Hill-equation fit; settings: both partners purified
eIF4GI557-1599 [11] = biological target: T1, eIF4GI557-1599; assay: fluorescence anisotropy; mRNA pre-bound by eIF4E•FITC-4E-BP1 peptide (label on peptide); text gives error 0.7; 20 mM HEPES-KOH pH 7.5, 200 mM KCl, 1 mM MgCl2, 25 °C; 10 nM labeled mRNA; pre-assembly with 0.5 uM eIF4E and 1 uM 4E-BP1; settings: protein: recombinant; tags: N-terminal 6xHis, TEV-cleaved; label: 3' fluorescein; structured 5'UTR

Chain of 4E-BP1 (Q13541 whole entry): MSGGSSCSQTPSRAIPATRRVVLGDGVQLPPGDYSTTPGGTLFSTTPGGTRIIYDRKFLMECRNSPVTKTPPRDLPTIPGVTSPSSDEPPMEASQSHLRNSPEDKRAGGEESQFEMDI
T2 sequence (Q04637 557-1599, chain 1 of 2): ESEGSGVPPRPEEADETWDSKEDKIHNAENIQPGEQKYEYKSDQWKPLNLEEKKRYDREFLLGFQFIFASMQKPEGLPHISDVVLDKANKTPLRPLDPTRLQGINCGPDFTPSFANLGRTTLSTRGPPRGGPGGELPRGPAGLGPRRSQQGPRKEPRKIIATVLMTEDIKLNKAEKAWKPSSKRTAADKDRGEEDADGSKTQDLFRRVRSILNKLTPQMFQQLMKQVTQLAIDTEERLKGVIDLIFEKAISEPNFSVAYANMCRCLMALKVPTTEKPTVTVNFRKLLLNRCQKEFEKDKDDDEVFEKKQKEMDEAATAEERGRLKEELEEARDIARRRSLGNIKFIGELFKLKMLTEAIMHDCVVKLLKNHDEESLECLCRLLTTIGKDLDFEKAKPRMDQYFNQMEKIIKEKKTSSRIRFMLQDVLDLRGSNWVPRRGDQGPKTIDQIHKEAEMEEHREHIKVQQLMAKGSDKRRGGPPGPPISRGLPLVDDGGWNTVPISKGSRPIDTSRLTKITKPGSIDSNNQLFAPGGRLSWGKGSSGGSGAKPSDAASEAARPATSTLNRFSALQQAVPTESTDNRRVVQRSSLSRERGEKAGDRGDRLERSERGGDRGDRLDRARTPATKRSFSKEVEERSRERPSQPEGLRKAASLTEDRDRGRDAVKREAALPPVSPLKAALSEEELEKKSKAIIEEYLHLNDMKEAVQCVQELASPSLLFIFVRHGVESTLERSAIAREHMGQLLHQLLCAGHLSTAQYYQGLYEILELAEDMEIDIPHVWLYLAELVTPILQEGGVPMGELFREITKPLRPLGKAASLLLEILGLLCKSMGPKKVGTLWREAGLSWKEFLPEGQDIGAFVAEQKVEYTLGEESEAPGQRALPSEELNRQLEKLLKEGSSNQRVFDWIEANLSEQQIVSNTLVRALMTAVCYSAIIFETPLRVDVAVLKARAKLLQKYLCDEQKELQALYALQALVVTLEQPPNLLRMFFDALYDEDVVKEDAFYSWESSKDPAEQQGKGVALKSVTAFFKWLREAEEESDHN
T2 sequence (P60842 whole entry, chain 2 of 2): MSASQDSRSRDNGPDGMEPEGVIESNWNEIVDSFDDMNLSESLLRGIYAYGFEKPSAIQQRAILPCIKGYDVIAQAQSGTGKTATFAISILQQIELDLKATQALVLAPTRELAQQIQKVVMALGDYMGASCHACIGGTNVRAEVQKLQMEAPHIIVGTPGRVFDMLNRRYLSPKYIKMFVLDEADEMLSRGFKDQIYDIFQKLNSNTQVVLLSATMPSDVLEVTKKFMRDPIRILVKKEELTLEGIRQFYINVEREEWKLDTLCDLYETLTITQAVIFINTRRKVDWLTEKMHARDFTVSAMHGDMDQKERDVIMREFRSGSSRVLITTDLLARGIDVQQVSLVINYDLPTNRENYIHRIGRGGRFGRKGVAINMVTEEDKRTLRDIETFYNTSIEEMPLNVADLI
T1 sequence (Q04637 557-1599): as the sequence (Q04637 557-1599, chain 1 of 2) above
Chain of eIF4E;4E-BP1 (P06730 whole entry, chain 1 of 2): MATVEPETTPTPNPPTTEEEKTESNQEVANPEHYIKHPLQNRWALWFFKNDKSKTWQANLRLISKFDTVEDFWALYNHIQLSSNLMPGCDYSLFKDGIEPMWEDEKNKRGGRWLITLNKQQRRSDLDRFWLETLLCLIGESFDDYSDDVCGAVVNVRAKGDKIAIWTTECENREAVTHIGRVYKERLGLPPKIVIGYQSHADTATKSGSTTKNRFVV
Chain of eIF4E;4E-BP1 (Q13541 whole entry, chain 2 of 2): as the sequence (Q13541 whole entry) above
Chain of eIF4E (P06730 whole entry): as the sequence (P06730 whole entry, chain 1 of 2) above
Chain of eukaryotic initiation factor 4E (eIF4E) (P06730 whole entry): as the sequence (P06730 whole entry, chain 1 of 2) above

Kd [10] [nM] | Binder | Kd (eIF4GI557-1599 [1]) [nM] | Kd (eIF4GI557-1599 [2]) [nM] | Kd (eIF4GI557-1599;eIF4A [3]) [nM] | Kd (eIF4E;4E-BP1; structured 5'UTR) [nM] | binding result (4E-BP1; structured 5'UTR) | Kd (eIF4GI557-1599 [4]) [nM] | Kd (eIF4E; structured 5'UTR) [nM] | Kd (eIF4GI557-1599;eIF4A [5]) [nM] | Kd (eIF4GI557-1599;eIF4A [6]) [nM] | binding result (eIF4GI557-1599;eIF4A [3]; unstructured control) | Kd (eIF4E;4E-BP1; unstructured control) [nM] | binding result (4E-BP1; unstructured control) | binding result (eIF4GI557-1599 [4]; unstructured control) | Kd (eIF4E; unstructured control) [nM] | Kd (eIF4GI557-1599 [7]) [nM] | Kd (eIF4GI557-1599 [8]) [nM] | Kd (eIF4GI557-1599;eIF4A [9]) [nM] | Kd (eIF4GI557-1599 [11]) [nM]
– | m7G FGF-9 5'UTR (structured_RNA, 5' m7G cap) RNA: GAAACAGCAGAUUACUUUUAUUUAUGCAUUUAAUGGAUUGAAGAAAAGAACCUUUUUUUUUCUCUCUCUCUCUGCAACUGCAGUAAGGGAGGGGAGUUGGAUAUACCUCGCCUAAUAUCUCCUGGGUUGACACCAUCAUUAUUGUUUAUUCUUGUGCUCCAAAAGCCGAGUCCUCUG | 32 ± 0.3 | 24 ± 0.9 | 23 ± 1.3 | 32 ± 3.9 | no binding | 20 ± 2 | 72 ± 1.6 | 24 ± 1.5 | – | – | – | – | – | – | – | – | – | –
– | ApppG FGF-9 5'UTR (structured_RNA, 5' ApppG cap (non-functional)) RNA: GAAACAGCAGAUUACUUUUAUUUAUGCAUUUAAUGGAUUGAAGAAAAGAACCUUUUUUUUUCUCUCUCUCUCUGCAACUGCAGUAAGGGAGGGGAGUUGGAUAUACCUCGCCUAAUAUCUCCUGGGUUGACACCAUCAUUAUUGUUUAUUCUUGUGCUCCAAAAGCCGAGUCCUCUG | 25 ± 1 | 13 ± 0.6 | – | 87 ± 2 | no binding | 28 ± 0.7 | 138 ± 4.6 | 18 ± 1 | 15 ± 0.3 | – | – | – | – | – | – | – | – | –
– | m7G beta-actin 5'UTR (structured_RNA, 5' m7G cap) RNA: GGACCGCCGAGACCGCGUCCGCCCCGCGAGCACAGAGCCUCGCCUUUGCCGAUCCGCCGCCCGCCACACCCGCCGCCAGCUCAC | – | – | – | – | – | – | – | – | – | no binding | 12 ± 0.6 | no binding | no binding | 28 ± 1.8 | – | – | – | –
– | m7G p53A 5'UTR (structured_RNA, 5' m7G cap) RNA: UCUAGAGCCACCGUCCAGGGAGCAGGUAGCUGCUGGGCUCCGGGGACACUUUGCGUUCGGGCUGGGAGCGUGCUUUCCACGACGGUGACACGCUUCCCUGGAUUGGCAGCCAGACUGCCUUCCGGGUCACUGCC | 29 ± 1.3 | 31 ± 5.9 | 33 ± 0.7 | 13 ± 1.1 | no binding | – | 59 ± 7.5 | 35 ± 1.3 | – | – | – | – | – | – | 44 ± 1 | – | – | –
– | ApppG p53A 5'UTR (structured_RNA, 5' ApppG cap (non-functional)) RNA: UCUAGAGCCACCGUCCAGGGAGCAGGUAGCUGCUGGGCUCCGGGGACACUUUGCGUUCGGGCUGGGAGCGUGCUUUCCACGACGGUGACACGCUUCCCUGGAUUGGCAGCCAGACUGCCUUCCGGGUCACUGCC | – | 25 ± 1.1 | 20 ± 2 | 45 ± 1.6 | no binding | 81 ± 1.3 | 186 ± 0.8 | 16 ± 0.8 | – | – | – | – | – | – | – | 35 ± 0.5 | – | –
– | m7G HIF-1alpha 5'UTR (structured_RNA, 5' m7G cap) RNA: AGUGCACAGUGCUGCCUCGUCUGAGGGGACAGGAGGAUCACCCUCUUCGUCGCUUCGGCCAGUGGUCGGGCUGGGCCCUGACAAGCCACCUGAGGAGAGGCUCGGAGCCGGGCCCGGACCCCGGCGAUUGCCGCCCGCUUCUCUCUAGUCUCACGAGGGGUUUCCCGCCUCGCACCCCCACCUCUGGACUUGCCUUUCCUUCUCUUCUCCGCGUGUGGAGGGAGCCAGCGCUUAGGCCGGAGCGAGCCUGGGGGCCGCCCGCCGUGAAGACAUCGCGGGGACCGAUUCACC | 21 ± 0.7 | 15 ± 3.4 | 20 ± 1.3 | 15 ± 3.4 | no binding | 22 ± 0.5 | 56 ± 1.5 | – | – | – | – | – | – | – | – | – | 21 ± 0.5 | –
– | ApppG HIF-1alpha 5'UTR (structured_RNA, 5' ApppG cap (non-functional)) RNA: AGUGCACAGUGCUGCCUCGUCUGAGGGGACAGGAGGAUCACCCUCUUCGUCGCUUCGGCCAGUGGUCGGGCUGGGCCCUGACAAGCCACCUGAGGAGAGGCUCGGAGCCGGGCCCGGACCCCGGCGAUUGCCGCCCGCUUCUCUCUAGUCUCACGAGGGGUUUCCCGCCUCGCACCCCCACCUCUGGACUUGCCUUUCCUUCUCUUCUCCGCGUGUGGAGGGAGCCAGCGCUUAGGCCGGAGCGAGCCUGGGGGCCGCCCGCCGUGAAGACAUCGCGGGGACCGAUUCACC | 30 ± 3.1 | 25 ± 1.8 | 19 ± 0.6 | 52 ± 0.5 | no binding | 67 ± 1.8 | 199 ± 1.5 | 24 ± 4.3 | – | – | – | – | – | – | – | – | – | –
5 ± 3.7 | PGGTRIIYDRK(FITC)FLMECRNSP (also called FITC-4E-BP1 peptide; 4E-BP1-FITC-Peptide; source: synthetic peptide, bought: GenScript (>=98% purity)) [fluorescein-labeled 4E-BP1 peptide] | – | – | – | – | – | – | – | – | – | – | – | – | – | – | – | – | – | –
– | m7G p53B 5'UTR (structured_RNA, 5' m7G cap) RNA: AUGGAGGAGCCGCAGUCAGAUCCUAGCGUCGAGCCCCCUCUGAGUCAGGAAACAUUUUCAGACCUAUGGAAACUACUUCCUGAAAACAACGUUCUGUCCCCCUUGCCGUCCCAAGCA | 47 ± 0.7 | 18 ± 0.3 | 21 ± 2.2 | 28 ± 2.3 | no binding | 18 ± 3.1 | 54 ± 2.3 | 22 ± 1.1 | – | – | – | – | – | – | – | – | – | –
– | ApppG p53B 5'UTR (structured_RNA, 5' ApppG cap (non-functional)) RNA: AUGGAGGAGCCGCAGUCAGAUCCUAGCGUCGAGCCCCCUCUGAGUCAGGAAACAUUUUCAGACCUAUGGAAACUACUUCCUGAAAACAACGUUCUGUCCCCCUUGCCGUCCCAAGCA | – | 22 ± 0.8 | 28 ± 1.8 | 89 ± 3.5 | no binding | 66 ± 1.7 | 159 ± 4.2 | 21 ± 1.1 | – | – | – | – | – | – | – | – | – | 42 ± 2
